The supplement of paper PMC12764529
± gives the half width of the 95% confidence interval.

Assays:
[1] = folding stability dG unfold (combined trypsin and chymotrypsin); higher = more stable
Outline: (§1)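 Bayesian fitting of sequencing counts gave K50 for each design. Unfolding free energy followed by setting this against a sequence-predicted unfolded-state K50 and a shared folded-state K50, either per protease or with trypsin and chymotrypsin combined. The designs, under 80 residues and lacking cysteine, were digested in a PA-tagged cDNA display format at 11 threefold-diluted protease concentrations and without protease, and only those with AlphaFold2 dimer inter-PAE above 15 were kept.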

[2] = folding stability dG unfold from chymotrypsin proteolysis; higher = more stable
Outline: as §1

[3] = folding stability dG unfold from trypsin proteolysis; higher = more stable
Outline: as §1

| Sequence | folding stability dG unfold [1] [kcal/mol] | folding stability dG unfold [2] [kcal/mol] | folding stability dG unfold [3] [kcal/mol] |
| --- | --- | --- | --- |
| SAGGSAGGSAGGKKIKIPKKVKVKVVKKKDGKLLVYLEKTGKVIELPVEDLKNITAEDLSAGGSAGGSAGGS [r10_709_TrROS_Hall] | 0.408 ± 0.094 | -0.63 ± 0.3 | 0.976 ± 0.038 |
| SAGGSAGGSAGGKKITIVMSAEEAEALAKALEDAGIDIDNLKIEVVKVEFPPALPAEDKSAGGSAGGSAGGS [r10_602_TrROS_Hall] | 1.57 ± 0.074 | 1.8 ± 0.051 | 1.2 ± 0.029 |
| SAGGSAGGSAGGKKKFGFLILVKNKDDEKLYLVEVPEELSLEEFLPDQEIDEEVIKKAIGSAGGSAGGSAGG [r17_412_TrMRF] | 0.724 ± 0.18 | 0.665 ± 0.27 | 0.823 ± 0.082 |
| SAGGSAGGSAGGKKKIKVELEVKEDGTIRMKATTEDGEEIETEIKVEKVEVTVFLPPEKSAGGSAGGSAGGS [r10_237_TrROS_Hall] | 1.55 ± 0.28 | 1.18 ± 0.23 | 1.74 ± 0.26 |
| SAGGSAGGSAGGKKKKVKKKVTITIKLSAEEVAKLLKDLYPEKNIKIEENEDGSLSVTFTSAGGSAGGSAGG [r7_670_TrROS_Hall] | 2.26 ± 0.11 | 2.39 ± 0.041 | 2 ± 0.098 |
| SAGGSAGGSAGGKKLRIKVKNKKTGKEIEIEIDVEDKTIEEIAKELAKKLNFEVTEIEPVSAGGSAGGSAGG [r7_590_TrROS_Hall] | 2.74 ± 0.24 | 2.9 ± 0.12 | 2.2 ± 0.18 |
| SAGGSAGGSAGGKKLTFKAEIVSEEEIEINGKKYRIFKVKVTLPDGSKLTLTVIVELDDLSAGGSAGGSAGG [r7_846_TrROS_Hall] | 3.84 ± 0.096 | 4.22 ± 0.056 | 2.83 ± 0.036 |
| SAGGSAGGSAGGKKPITLTVLVTDPDGYLLQRTTTLTLDEDTNELTATTTVTRIPLEDLSAGGSAGGSAGGS [r10_1225_TrROS_Hall] | 1.6 ± 0.13 | 1.97 ± 0.088 | 0.684 ± 0.11 |
| SAGGSAGGSAGGKKTINVEIVKIEVTKNKKTNEYTVKIYIKDTGKTITLTVKPGDIIKISAGGSAGGSAGGS [r10_819_TrROS_Hall] | 3.1 ± 0.21 | 3.28 ± 0.1 | 1.42 ± 0.064 |
| SAGGSAGGSAGGKKTITVPKGAVVRITYKNGEKKEVKAGETITIEDLPEDVKIEVVKVKKSAGGSAGGSAGG [r7_968_TrROS_Hall] | 2.19 ± 0.094 | 2.44 ± 0.03 | 1.73 ± 0.06 |
| SAGGSAGGSAGGKKVKITVVLEFDGVLLVAEAEIEFDENGKIVEIKVKVELFPAPEEGEESAGGSAGGSAGG [r7_135_TrROS_Hall] | 2.96 ± 0.48 | 2.39 ± 0.18 | 3.21 ± 0.36 |
| SAGGSAGGSAGGKKVTITLKDANGKELKIEVKEGEEVTIEVGGKKYKLTVKDGKIELKPVSAGGSAGGSAGG [r7_510_TrROS_Hall] | 4.61 ± 0.44 | 4.67 ± 0.23 | 4.03 ± 0.28 |
| SAGGSAGGSAGGKKYKIKVYVKDKKTKKWKKIKEIEVDTKEEALEAIKKLPPNYEVKIVPSAGGSAGGSAGG [r7_307_TrROS_Hall] | 4.91 ± 0.14 | 5.04 ± 0.068 | 4.11 ± 0.14 |
| SAGGSAGGSAGGKKYKVVSIEKTKDYVRITIYNEETGELKTFTFPPGSTVTIKPGDTLTSAGGSAGGSAGGS [r10_834_TrROS_Hall] | 4.42 ± 0.12 | 4.53 ± 0.15 | 3.88 ± 0.2 |
